In patent publication US20100041610A1:

Target: Class A TC protein XptA2wi (Xenorhabdus nematophilus xwi)
Assay: cell-based or functional assay

Substance: TcdB2+TccC3 complex (non fused)
- killing/stunting activity against corn earworm larvae, XptA2 held constant at 250 ng/cm^2: 7.8 ng/cm^2
